Results reported in patent US20210302413A1 (Johns Hopkins, published 2021).

Target: T1, endogenous human zinc transporter 8 (ZnT8) in EndoC-βH1 cells (human, UniProt Q8IWU4 1-369)
T1 construct: whole, on cells; Intracellular membrane protein, probed in fixed and permeabilised cells (in-cell ELISA), in SDS lysates (immunoblot) or in liposomes (SUVs) made from the cells; On blots two natural splice variants (A and B) are detected; also called endogenous ZnT8; SLC30A8 product
T1 sequence (looked up): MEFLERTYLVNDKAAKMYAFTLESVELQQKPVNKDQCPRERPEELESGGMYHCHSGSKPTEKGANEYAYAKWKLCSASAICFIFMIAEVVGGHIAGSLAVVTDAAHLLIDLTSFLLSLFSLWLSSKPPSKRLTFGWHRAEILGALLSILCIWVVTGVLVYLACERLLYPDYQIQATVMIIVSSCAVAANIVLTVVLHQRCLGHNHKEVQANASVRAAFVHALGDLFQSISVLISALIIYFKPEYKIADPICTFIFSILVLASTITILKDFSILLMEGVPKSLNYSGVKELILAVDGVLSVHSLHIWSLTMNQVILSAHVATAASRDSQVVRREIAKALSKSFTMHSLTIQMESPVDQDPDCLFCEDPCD
Assay: in-cell ELISA, 95×10^3 EndoC-βH1 cells against the same number of rat INS-1E cells
Method: Next, mAb20 or a rabbit anti-HLA-I antibody (Proteintech, Cat. #15240-1-AP) was 1:600 or 1:60 diluted to Permeabilization/Wash Buffer I plus 0.5% BSA. Cells in each well were incubated with the diluted antibody solution for 2 hr at 37° C., washed once, and then exposed to a HRP-conjugated anti-mouse IgG (H+L) (Invitrogen, Cat. #62-6520) or anti-rabbit IgG (H+L) antibody (Invitrogen, Cat. #62-6120) in a 1:3000 dilution in Permeabilization/Wash Buffer I plus 0.1% BSA. After 1 hr incubation with the secondary antibody at RT, cells were washed three times to remove unbound antibodies before adding SuperSignal ELISA Femto Substrate (ThermoFisher Scientific, Cat. #37075). The HRP reaction was terminated at 5 min by transferring the reaction mixture to a 96-well opaque microplate for chemiluminescence quantification on a FlexStation-3 multi-mode microplate reader.
Assay validation. A ZnT8-specific ELISA was developed to track the endogenous ZnT8 level in EndoC-βH1 cells immobilized to a 96-well plate by paraformaldehyde fixation, followed by immunostaining and horseradish peroxidase (HRP) chemiluminescence. The non-specific background was estimated using rat insulinoma INS-1E and human HEK293 cells as negative controls. […] The signal-to-noise ratio at 95×10^3 cells was 3.9 (Z′ score=0.8) over a background detected from a same number of INS-1E cells (FIG. 1A). […]

- signal-to-noise ratio: 3.9
B1: anti-ZnT8 monoclonal antibody mAb20 (antibody, mouse IgG1, kappa, V domains shown)
VH: QIQLVQSGPELKKPGETVKISCKASGYIFTNYPMHWVKQAPGKGLKWMGWINTYSGVPTHADDFKGRFAFSLETSANSAFLQINNLKNEDTATYFCTRSRITPTGGYAMDYWGQGTSVTVSS
VL: DVVMTQTPLSLPVSLGDQASISCRSSQSLVHSNGNTYLHWYLQKPGQSPNLLISKVSNRFSGVPERFSGSGSGTDFTLKISRVEAEDLGVYFCSQNTHVPWTFGGGTKLEIKR
notes: Mouse monoclonal antibody; Used free (1:600 of a 1 mg/ml stock), biotinylated, or crosslinked to Dynabeads through NHS-PEG5K-NHS; also called mouse mAb20; biotinylated mAb20
